Assay results from the supplement of paper PMC11908140.

B1: library; numbered along this chain (parent)
chain: MRKPRAAVGSGHRKQAASQEGRQKHAKNNSQAKPSACDGLARQPEEVVLQASVSSYHLFRDVAEVTAFRGSLLSWYDQEKRDLPWRRRAEDEMDLDRRAYAVWVSEVMLQQTQVATVINYYTGWMQKWPTLQDLASASLEEVNQLWAGLGYYSRGRRLQEGARKVVEELGGHMPRTAETLQQLLPGVGRYTAGAIASIAFGQATGVVDGNVARVLCRVRAIGADPSSTLVSQQLWGLAQQLVDPARPGDFNQAAMELGATVCTPQRPLCSQCPVESLCRARQRVEQEQLLASGSLSGSPDVEECAPNTGQCHLCLPPSEPWDQTLGVVNFPRKASRKPPREESSATCVLEQPGALGAQILLVQRPNSGLLAGLWEFPSVTWEPSEQLQRKALLQELQRWAGPLPATHLRHLGEVVHTFSHIKLTYQVYGLALEGQTPVTTVPPGARWLTQEEFHTAAVSTAMKKVFRVYQGQQPGTCMGSKRSQVSSPCSRKKPRMGQQVLDNFFRSHISTDAHSLNSAAQ

Variants of: B1
Assay: 8OG:A repair function score (normalized; synonymous = 0, nonsense = -1) (normalized log-likelihood score); higher = more repair activity (WT-like)
Details: with 8OG:A DNA repair reporter (GFP) in HEK-293 MUTYH KO cells
Procedure: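 Saturation mutagenesis (NNN codon scan) of the MUTYH cDNA (521-aa nuclear isoform NM_001048174.1 / NP_001041639), stably expressed under doxycycline induction in HEK-293 MUTYH knockout cells. Cells were co-transfected with an 8OG:A-bearing GFP repair reporter plus mCherry and sorted 72 h later into GFP+ and GFP− bins, three replicates per tile. The Rosace log2 enrichment (GFP+ vs GFP−) was converted per tile to a normalized function score with synonymous variants centered at 0 and nonsense variants (codons 1-471) at -1; low-abundance variants were removed.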

Row | Variant | 8OG:A repair function score
1 | MRKPRAAVGSGHRKQAASQEGRQKHAKNNSQAKPSACDGLARQPEEVVLQASVSSYHLFRDVAEVTAFRGSLLSWYDQEKRDLPWRRRAEDEMDLDRRAYAVWVSEVMLQQTQVATVINYYTGWMQKWPTLQDLASRSLEEVNQLWAGLGYYSRGRRLQEGARKVVEELGGHMPRTAETLQQLLPGVGRYTAGAIASIAFGQATGVVDGNVARVLCRVRAIGADPSSTLVSQQLWGLAQQLVDPARPGDFNQAAMELGATVCTPQRPLCSQCPVESLCRARQRVEQEQLLASGSLSGSPDVEECAPNTGQCHLCLPPSEPWDQTLGVVNFPRKASRKPPREESSATCVLEQPGALGAQILLVQRPNSGLLAGLWEFPSVTWEPSEQLQRKALLQELQRWAGPLPATHLRHLGEVVHTFSHIKLTYQVYGLALEGQTPVTTVPPGARWLTQEEFHTAAVSTAMKKVFRVYQGQQPGTCMGSKRSQVSSPCSRKKPRMGQQVLDNFFRSHISTDAHSLNSAAQ [A137R] | -0.54
2 | MRKPRAAVGSGHRKQAASQEGRQKHAKNNSQAKPSACDGLARQPEEVVLQASVSSYHLFRDVAEVTAFRGSLLSWYDQEKRDLPWRRRAEDEMDLDRRAYAVWVSEVMLQQTQVATVINYYTGWMQKWPTLQDLASYSLEEVNQLWAGLGYYSRGRRLQEGARKVVEELGGHMPRTAETLQQLLPGVGRYTAGAIASIAFGQATGVVDGNVARVLCRVRAIGADPSSTLVSQQLWGLAQQLVDPARPGDFNQAAMELGATVCTPQRPLCSQCPVESLCRARQRVEQEQLLASGSLSGSPDVEECAPNTGQCHLCLPPSEPWDQTLGVVNFPRKASRKPPREESSATCVLEQPGALGAQILLVQRPNSGLLAGLWEFPSVTWEPSEQLQRKALLQELQRWAGPLPATHLRHLGEVVHTFSHIKLTYQVYGLALEGQTPVTTVPPGARWLTQEEFHTAAVSTAMKKVFRVYQGQQPGTCMGSKRSQVSSPCSRKKPRMGQQVLDNFFRSHISTDAHSLNSAAQ [A137Y] | -0.928
3 | MRKPRAAVGSGHRKQAASQEGRQKHAKNNSQAKPSACDGLARQPEEVVLQASVSSYHLFRDVAEVTAFRGSLLSWYDQEKRDLPWRRRAEDEMDLDRRAYAVWVSEVMLQQTQVATVINYYTGWMQKWPTLQDLASWSLEEVNQLWAGLGYYSRGRRLQEGARKVVEELGGHMPRTAETLQQLLPGVGRYTAGAIASIAFGQATGVVDGNVARVLCRVRAIGADPSSTLVSQQLWGLAQQLVDPARPGDFNQAAMELGATVCTPQRPLCSQCPVESLCRARQRVEQEQLLASGSLSGSPDVEECAPNTGQCHLCLPPSEPWDQTLGVVNFPRKASRKPPREESSATCVLEQPGALGAQILLVQRPNSGLLAGLWEFPSVTWEPSEQLQRKALLQELQRWAGPLPATHLRHLGEVVHTFSHIKLTYQVYGLALEGQTPVTTVPPGARWLTQEEFHTAAVSTAMKKVFRVYQGQQPGTCMGSKRSQVSSPCSRKKPRMGQQVLDNFFRSHISTDAHSLNSAAQ [A137W] | -1.02
4 | MRKPRAAVGSGHRKQAASQEGRQKHAKNNSQAKPSACDGLARQPEEVVLQASVSSYHLFRDVAEVTAFRGSLLSWYDQEKRDLPWRRRAEDEMDLDRRAYAVWVSEVMLQQTQVATVINYYTGWMQKWPTLQDLASPSLEEVNQLWAGLGYYSRGRRLQEGARKVVEELGGHMPRTAETLQQLLPGVGRYTAGAIASIAFGQATGVVDGNVARVLCRVRAIGADPSSTLVSQQLWGLAQQLVDPARPGDFNQAAMELGATVCTPQRPLCSQCPVESLCRARQRVEQEQLLASGSLSGSPDVEECAPNTGQCHLCLPPSEPWDQTLGVVNFPRKASRKPPREESSATCVLEQPGALGAQILLVQRPNSGLLAGLWEFPSVTWEPSEQLQRKALLQELQRWAGPLPATHLRHLGEVVHTFSHIKLTYQVYGLALEGQTPVTTVPPGARWLTQEEFHTAAVSTAMKKVFRVYQGQQPGTCMGSKRSQVSSPCSRKKPRMGQQVLDNFFRSHISTDAHSLNSAAQ [A137P] | -0.869
5 | MRKPRAAVGSGHRKQAASQEGRQKHAKNNSQAKPSACDGLARQPEEVVLQASVSSYHLFRDVAEVTAFRGSLLSWYDQEKRDLPWRRRAEDEMDLDRRAYAVWVSEVMLQQTQVATVINYYTGWMQKWPTLQDLASNSLEEVNQLWAGLGYYSRGRRLQEGARKVVEELGGHMPRTAETLQQLLPGVGRYTAGAIASIAFGQATGVVDGNVARVLCRVRAIGADPSSTLVSQQLWGLAQQLVDPARPGDFNQAAMELGATVCTPQRPLCSQCPVESLCRARQRVEQEQLLASGSLSGSPDVEECAPNTGQCHLCLPPSEPWDQTLGVVNFPRKASRKPPREESSATCVLEQPGALGAQILLVQRPNSGLLAGLWEFPSVTWEPSEQLQRKALLQELQRWAGPLPATHLRHLGEVVHTFSHIKLTYQVYGLALEGQTPVTTVPPGARWLTQEEFHTAAVSTAMKKVFRVYQGQQPGTCMGSKRSQVSSPCSRKKPRMGQQVLDNFFRSHISTDAHSLNSAAQ [A137N] | -0.267
6 | MRKPRAAVGSGHRKQAASQEGRQKHAKNNSQAKPSACDGLARQPEEVVLQASVSSYHLFRDVAEVTAFRGSLLSWYDQEKRDLPWRRRAEDEMDLDRRAYAVWVSEVMLQQTQVATVINYYTGWMQKWPTLQDLASTSLEEVNQLWAGLGYYSRGRRLQEGARKVVEELGGHMPRTAETLQQLLPGVGRYTAGAIASIAFGQATGVVDGNVARVLCRVRAIGADPSSTLVSQQLWGLAQQLVDPARPGDFNQAAMELGATVCTPQRPLCSQCPVESLCRARQRVEQEQLLASGSLSGSPDVEECAPNTGQCHLCLPPSEPWDQTLGVVNFPRKASRKPPREESSATCVLEQPGALGAQILLVQRPNSGLLAGLWEFPSVTWEPSEQLQRKALLQELQRWAGPLPATHLRHLGEVVHTFSHIKLTYQVYGLALEGQTPVTTVPPGARWLTQEEFHTAAVSTAMKKVFRVYQGQQPGTCMGSKRSQVSSPCSRKKPRMGQQVLDNFFRSHISTDAHSLNSAAQ [A137T] | -0.295
7 | MRKPRAAVGSGHRKQAASQEGRQKHAKNNSQAKPSACDGLARQPEEVVLQASVSSYHLFRDVAEVTAFRGSLLSWYDQEKRDLPWRRRAEDEMDLDRRAYAVWVSEVMLQQTQVATVINYYTGWMQKWPTLQDLASMSLEEVNQLWAGLGYYSRGRRLQEGARKVVEELGGHMPRTAETLQQLLPGVGRYTAGAIASIAFGQATGVVDGNVARVLCRVRAIGADPSSTLVSQQLWGLAQQLVDPARPGDFNQAAMELGATVCTPQRPLCSQCPVESLCRARQRVEQEQLLASGSLSGSPDVEECAPNTGQCHLCLPPSEPWDQTLGVVNFPRKASRKPPREESSATCVLEQPGALGAQILLVQRPNSGLLAGLWEFPSVTWEPSEQLQRKALLQELQRWAGPLPATHLRHLGEVVHTFSHIKLTYQVYGLALEGQTPVTTVPPGARWLTQEEFHTAAVSTAMKKVFRVYQGQQPGTCMGSKRSQVSSPCSRKKPRMGQQVLDNFFRSHISTDAHSLNSAAQ [A137M] | -0.417
8 | MRKPRAAVGSGHRKQAASQEGRQKHAKNNSQAKPSACDGLARQPEEVVLQASVSSYHLFRDVAEVTAFRGSLLSWYDQEKRDLPWRRRAEDEMDLDRRAYAVWVSEVMLQQTQVATVINYYTGWMQKWPTLQDLASVSLEEVNQLWAGLGYYSRGRRLQEGARKVVEELGGHMPRTAETLQQLLPGVGRYTAGAIASIAFGQATGVVDGNVARVLCRVRAIGADPSSTLVSQQLWGLAQQLVDPARPGDFNQAAMELGATVCTPQRPLCSQCPVESLCRARQRVEQEQLLASGSLSGSPDVEECAPNTGQCHLCLPPSEPWDQTLGVVNFPRKASRKPPREESSATCVLEQPGALGAQILLVQRPNSGLLAGLWEFPSVTWEPSEQLQRKALLQELQRWAGPLPATHLRHLGEVVHTFSHIKLTYQVYGLALEGQTPVTTVPPGARWLTQEEFHTAAVSTAMKKVFRVYQGQQPGTCMGSKRSQVSSPCSRKKPRMGQQVLDNFFRSHISTDAHSLNSAAQ [A137V] | -0.325
9 | MRKPRAAVGSGHRKQAASQEGRQKHAKNNSQAKPSACDGLARQPEEVVLQASVSSYHLFRDVAEVTAFRGSLLSWYDQEKRDLPWRRRAEDEMDLDRRAYAVWVSEVMLQQTQVATVINYYTGWMQKWPTLQDLASQSLEEVNQLWAGLGYYSRGRRLQEGARKVVEELGGHMPRTAETLQQLLPGVGRYTAGAIASIAFGQATGVVDGNVARVLCRVRAIGADPSSTLVSQQLWGLAQQLVDPARPGDFNQAAMELGATVCTPQRPLCSQCPVESLCRARQRVEQEQLLASGSLSGSPDVEECAPNTGQCHLCLPPSEPWDQTLGVVNFPRKASRKPPREESSATCVLEQPGALGAQILLVQRPNSGLLAGLWEFPSVTWEPSEQLQRKALLQELQRWAGPLPATHLRHLGEVVHTFSHIKLTYQVYGLALEGQTPVTTVPPGARWLTQEEFHTAAVSTAMKKVFRVYQGQQPGTCMGSKRSQVSSPCSRKKPRMGQQVLDNFFRSHISTDAHSLNSAAQ [A137Q] | -0.0812
10 | MRKPRAAVGSGHRKQAASQEGRQKHAKNNSQAKPSACDGLARQPEEVVLQASVSSYHLFRDVAEVTAFRGSLLSWYDQEKRDLPWRRRAEDEMDLDRRAYAVWVSEVMLQQTQVATVINYYTGWMQKWPTLQDLASSSLEEVNQLWAGLGYYSRGRRLQEGARKVVEELGGHMPRTAETLQQLLPGVGRYTAGAIASIAFGQATGVVDGNVARVLCRVRAIGADPSSTLVSQQLWGLAQQLVDPARPGDFNQAAMELGATVCTPQRPLCSQCPVESLCRARQRVEQEQLLASGSLSGSPDVEECAPNTGQCHLCLPPSEPWDQTLGVVNFPRKASRKPPREESSATCVLEQPGALGAQILLVQRPNSGLLAGLWEFPSVTWEPSEQLQRKALLQELQRWAGPLPATHLRHLGEVVHTFSHIKLTYQVYGLALEGQTPVTTVPPGARWLTQEEFHTAAVSTAMKKVFRVYQGQQPGTCMGSKRSQVSSPCSRKKPRMGQQVLDNFFRSHISTDAHSLNSAAQ [A137S] | -0.0075
11 | MRKPRAAVGSGHRKQAASQEGRQKHAKNNSQAKPSACDGLARQPEEVVLQASVSSYHLFRDVAEVTAFRGSLLSWYDQEKRDLPWRRRAEDEMDLDRRAYAVWVSEVMLQQTQVATVINYYTGWMQKWPTLQDLASAALEEVNQLWAGLGYYSRGRRLQEGARKVVEELGGHMPRTAETLQQLLPGVGRYTAGAIASIAFGQATGVVDGNVARVLCRVRAIGADPSSTLVSQQLWGLAQQLVDPARPGDFNQAAMELGATVCTPQRPLCSQCPVESLCRARQRVEQEQLLASGSLSGSPDVEECAPNTGQCHLCLPPSEPWDQTLGVVNFPRKASRKPPREESSATCVLEQPGALGAQILLVQRPNSGLLAGLWEFPSVTWEPSEQLQRKALLQELQRWAGPLPATHLRHLGEVVHTFSHIKLTYQVYGLALEGQTPVTTVPPGARWLTQEEFHTAAVSTAMKKVFRVYQGQQPGTCMGSKRSQVSSPCSRKKPRMGQQVLDNFFRSHISTDAHSLNSAAQ [S138A] | -0.0766
12 | MRKPRAAVGSGHRKQAASQEGRQKHAKNNSQAKPSACDGLARQPEEVVLQASVSSYHLFRDVAEVTAFRGSLLSWYDQEKRDLPWRRRAEDEMDLDRRAYAVWVSEVMLQQTQVATVINYYTGWMQKWPTLQDLASACLEEVNQLWAGLGYYSRGRRLQEGARKVVEELGGHMPRTAETLQQLLPGVGRYTAGAIASIAFGQATGVVDGNVARVLCRVRAIGADPSSTLVSQQLWGLAQQLVDPARPGDFNQAAMELGATVCTPQRPLCSQCPVESLCRARQRVEQEQLLASGSLSGSPDVEECAPNTGQCHLCLPPSEPWDQTLGVVNFPRKASRKPPREESSATCVLEQPGALGAQILLVQRPNSGLLAGLWEFPSVTWEPSEQLQRKALLQELQRWAGPLPATHLRHLGEVVHTFSHIKLTYQVYGLALEGQTPVTTVPPGARWLTQEEFHTAAVSTAMKKVFRVYQGQQPGTCMGSKRSQVSSPCSRKKPRMGQQVLDNFFRSHISTDAHSLNSAAQ [S138C] | -0.385
